“Also recorded” adds a separate entry of the source. Like-named read-outs stand apart in the source and are kept apart here.
Columns and labels:
B16F10 melanoma [1] = test: advanced subcutaneous B16F10 melanoma, repeat with cyclophosphamide (Example VII); format: in vivo, mice; details: for regressions: treatment from median 100 mm^3 (Day 14)
B16F10 melanoma [2] = test: advanced subcutaneous B16F10 melanoma (Example VI); format: in vivo, mice
Procedure: In this experiment, IL-18 was evaluated in an advanced syngeneic tumor model alone and in combination with chemotherapy. Mice bearing advanced subcutaneous B16F10 melanoma were treated with IL-18 alone or in combination with either cyclophosphamide or topotecan. Treatment was initiated on Day 11 postimplantation.

[3] = mouse, in vivo
Procedure: (§1) An experiment was conducted to determine the effectiveness of IL-18 on its own and in combination with doxorubicin in the 16/c mammary adenocarcinoma tumor model. The 16/c line was implanted subcutaneously at a 1:10 brei and allowed to grow to a median of 52-109 mm^3 before initiation of treatment. Doxorubicin was administered intravenously on Days 12 and 19 at 7.2, 12, and 20 mg/kg. IL-18 was administered subcutaneously at 1, 10, and 100 μg/mouse on a qD×21 schedule starting from Day 12. The endpoints of this study were tumor growth delay and regression.

[4] = system: mammary adenocarcinoma 16/c; test: subcutaneous mammary adenocarcinoma 16/c, IL-18 and doxorubicin (Example IX); format: in vivo, mouse; details: for regressions: alone or combined
Procedure: as §1

[5] = toxicity and toxic deaths in the 16/c experiment (Example IX)
Procedure: as §1

[6] = system: Madison 109 lung carcinoma; test: subcutaneous Madison 109 lung carcinoma, IL-18 and paclitaxel (Example VIII); format: in vivo, mouse; details: for regressions: alone or combined
[7] = paclitaxel 24 mg/kg iv qD×5
MOPC-315 plasmacytoma [8] = test: advanced MOPC-315 plasmacytoma, confirmation with higher IL-18 doses (Example IV); format: in vivo, mice
Procedure: The activity of IL-18 in combination with topotecan in mice bearing advanced MOPC-315 plasmacytoma was confirmed in a large experiment in which higher doses of IL-18 were used. In this experiment, topotecan was administered q4D×6 beginning on Day 10 and IL-18 was given qD×30 beginning on the same day. Both drugs were administered intraperitonealy and activity was assessed by tumor measurements.

MOPC-315 plasmacytoma [9] = test: established subcutaneous MOPC-315 plasmacytoma (Example III); format: in vivo, BALB/c mice
Procedure: The MOPC-315 plasmacytoma is analogous to the human cancer known as multiple myeloma. This tumor is a malignancy of the plasma cells, a mature form of B lymphocytes involved in antibody expression. MOPC-315 grows rapidly to a very large size in syngeneic BALB/c mice. It is not highly metastatic or invasive.
IL-18 was evaluated in mice bearing established subcutaneous MOPC-315 plasmacytoma. In order to increase chances of seeing an effect of immunotherapy, IL-18 was evaluated in combination with an effective chemotherapeutic agent as well as by monotherapy. IL-18 at 0.3, 1, 3, and 10 μg/mouse was administered daily intraperitonealy and topotecan was administered intraperitonealy on a q4D schedule at 9 and 15 mg/kg. Both drugs were started on Day 11 postimplantation when the median tumor volume ranged from 32 to 88 mg. Control tumors took 17.2 days to grow to 1 gram. (See FIGS. 5-7).

Lewis lung carcinoma [10] = test: advanced systemic Lewis lung carcinoma, confirmation with higher IL-18 doses (Example II); details: for tumor weight and nodule count: Day 14
Procedure: This experiment included the use of higher doses of IL-18. […] The remaining mice were continued under treatment and monitored for survival. Topotecan was administered intraperitonealy q4D×6 on Days 7, 11, 15, 19, 23, and 29; dosage levels shown are mg/kg. Murine IL-18 was administered intraperitonealy qD×26 from Day 7 to Day 33; dosage levels shown are μg/mouse.

Lewis lung carcinoma [11] = system: Lewis lung carcinoma
Procedure: Treatment was delayed until Day 7 when tumors were established and growing in the lungs. Half of the mice in each group were killed on Day 16 to determine effects of treatment on pulmonary tumor growth, the remaining mice were continued under treatment and monitored for survival. […] Topotecan was administered intraperitonealy q4D×7 beginning on Day 7 and ending on Day 32 and the doses shown are in mg/kg. Murine IL-18 was administered intraperitonealy UID from Day 7 to Day 32 and the doses shown are μg/mouse. There were 3 groups of control animals, all of which died between Day 17 and 30.

MOPC-315 plasmacytoma [12] = test: advanced MOPC-315 plasmacytoma, schedule and route study (Example V); format: in vivo, mice
Procedure: The evaluation of IL-18 in combination with chemotherapy was repeated to establish: (a) how effective is IL-18 in tumor models when given subcutaneously and (b) whether IL-18 is active when given on an intermittent schedule or whether daily treatment is necessary. The experiment was set up again with topotecan in the advanced MOPC-315 plasmacytoma model with treatment starting on Day 10 when tumors were about 100 mm^3 in volume. Topotecan was given at its MTD of 15 mg/kg on a q4D regimen and IL-18 was given over a broad dosage range either intraperitonealy or subcutaneously on a q1D or q4D regimen. […] However, IL-18 was continued. (See FIGS. 11-13).

colon 26 adenocarcinoma = details: Hanaya et al. 1996; cited from earlier work
[13] = cyclophosphamide MTD 300 mg/kg q7D
[14] = topotecan MTD 15 mg/kg ip q4D from Day 11
[15] = topotecan 9 mg/kg ip q4D×6 from Day 7
[16] = topotecan 15 mg/kg ip q4D×6 from Day 7
[17] = topotecan MTD 15 mg/kg q4D, Day 16
[18] = IL-18 1 μg/mouse ip qD×26 Day 7-33
[19] = IL-18 3 μg/mouse ip qD×26 Day 7-33
[20] = IL-18 10 μg/mouse ip qD×26 Day 7-33
[21] = IL-18 30 μg/mouse ip qD×26 Day 7-33
[22] = IL-18 100 μg/mouse ip qD×26 Day 7-33
[23] = IL-18 0.3 μg/mouse ip UID Day 7-32
[24] = IL-18 1 μg/mouse ip UID Day 7-32
[25] = IL-18 3 μg/mouse ip UID Day 7-32
[26] = IL-18 10 μg/mouse ip UID Day 7-32
[27] = IL-18 alone 0.3-10 μg/mouse ip UID, Day 16, no clear dose-response

O=P1(N(CCCl)CCCl)NCCCO1 (stereo not shown) [Cyclophosphamide, cyclophosphamide]
tumor growth delay (B16F10 melanoma [1]; cyclophosphamide MTD): 14 days | tumor growth delay (B16F10 melanoma [1]; cyclophosphamide suboptimal dose 180 mg/kg): 4 days | regressions (B16F10 melanoma [1]): no regressions | increase in survival (B16F10 melanoma [2]; [13]): 95% | tumor growth delay (B16F10 melanoma [2]; [13]): 14 days

COc1cccc2c1C(=O)c1c(O)c3c(c(O)c1C2=O)C[C@@](O)(C(=O)CO)C[C@@H]3O[C@H]1C[C@H](N)[C@H](O)[C@H](C)O1 [Doxorubicin, doxorubicin]
weight loss [3]: no weight loss | regressions [4]: no regressions | tumor growth delay ([4]; doxorubicin 7.2, 12, 20 mg/kg iv): dose-dependent tumor growth delay | efficacy ([4]; doxorubicin at 1/3 of its MTD): little or no efficacy | MTD ([5]; mouse, in vivo, iv): 20 mg/kg

CC(=O)O[C@H]1C(=O)[C@@]2(C)[C@H]([C@H](OC(=O)c3ccccc3)[C@]3(O)C[C@H](OC(=O)[C@H](O)[C@@H](NC(=O)c4ccccc4)c4ccccc4)C(C)=C1C3(C)C)[C@]1(OC(C)=O)CO[C@@H]1C[C@@H]2O [Paclitaxel, paclitaxel, reference compound]
regressions [6]: no regressions | ILS (increased life span) ([6]; paclitaxel 12 mg/kg iv qD×5): 27% ILS | T-C: tumor growth delay ([6]; paclitaxel 12 mg/kg iv qD×5 (Days 9-13)): T-C 3.5 days, | ILS (increased life span) ([6]; paclitaxel 24 mg/kg iv qD×5): 35% ILS | T-C: tumor growth delay ([6]; paclitaxel 24 mg/kg iv qD×5): T-C 9.7 days, | survival ([6]; paclitaxel alone): minimal prolongation of survival | tumor growth delay ([6]; paclitaxel alone): minimal tumor growth delay | body weight loss [7]: 4.7 g

CC[C@@]1(O)C(=O)OCc2c1cc1n(c2=O)Cc2cc3c(CN(C)C)c(O)ccc3nc2-1 [Topotecan, topotecan, reference compound]
complete regressions (MOPC-315 plasmacytoma [8]; topotecan MTD alone ip q4D×6 from Day 10): 2/6 | effect on tumor (MOPC-315 plasmacytoma [8]; topotecan suboptimal dose alone): virtually no effect | antitumor activity (B16F10 melanoma [2]; topotecan at its MTD): inactive | regressions (MOPC-315 plasmacytoma [9]; topotecan 9 mg/kg ip q4D): no regressions | tumor growth delay (MOPC-315 plasmacytoma [9]; topotecan 9 mg/kg ip q4D): 4 days | complete regressions (MOPC-315 plasmacytoma [9]; [14]): 1/7 | tumor growth delay (MOPC-315 plasmacytoma [9]; [14]): about 12 days | Increase in Lifespan (Lewis lung carcinoma [10]; [15]): 42% | Median Survival Time (Lewis lung carcinoma [10]; [15]): 25.5 days | Increase in Lifespan (Lewis lung carcinoma [10]; [16]): 86% | Median Survival Time (Lewis lung carcinoma [10]; [16]): 33.5 days | tumor weight and nodule count (Lewis lung carcinoma [10]; topotecan MTD 15 mg/kg): good reduction in tumor weight and nodule count | tumor weight and nodule count (Lewis lung carcinoma [10]; topotecan lower dose 9 mg/kg): lesser effect on both parameters | Increase in Lifespan (Lewis lung carcinoma [11]; topotecan 9.0 mg/kg (0.6×MTD) ip q4D×7 from Day 7): 63% | Median Survival Time (Lewis lung carcinoma [11]; topotecan 9.0 mg/kg ip q4D×7 from Day 7): 36 days | Increase in Lifespan (Lewis lung carcinoma [11]; topotecan 15 mg/kg (MTD) ip q4D×7 from Day 7): 68% | Median Survival Time (Lewis lung carcinoma [11]; topotecan 15 mg/kg ip q4D×7 from Day 7): 37 days | average number of pulmonary tumor nodules (Lewis lung carcinoma [11]; [17]): 45 | suppression of tumor growth (Lewis lung carcinoma [11]; [17]): > 90%

B1: IL-18: cytokine, interferon-γ-inducing factor; murine IL-18 (SEQ ID NO:2) was administered to mice (protein)
chain: NFGRLHCTTAVIRNINDQVLFVDKRQPVFEDMTDIDQSASEPQTRLIIYMYKDSEVRGLAVTLSVKDSKMSTLSCKNKIISFEEMDPPENIDDIQSDLIFFQKRVPGHNKMEFESSLYEGHFLACQKEDDAFKLILKKKDENGDKSVMFTLTNLHQS
modifications: Mouse
complete regressions (MOPC-315 plasmacytoma [8]; IL-18 alone 100 μg/mouse/day ip qD×30 from Day 10): 4 of 6 | effect on tumor (MOPC-315 plasmacytoma [8]; IL-18 alone, doses lower than 100 μg/mouse/day): ineffective | tumor growth delay (B16F10 melanoma [1]; IL-18 alone): about 2 days | regressions (B16F10 melanoma [1]): no regressions | ILS (effect on survival time) (B16F10 melanoma [2]; IL-18 alone from Day 11): < 30% | effect on tumor growth (B16F10 melanoma [2]; IL-18 alone from Day 11): no effect on tumor growth | tumor growth delay (MOPC-315 plasmacytoma [9]; IL-18 alone 0.3, 1, 3, 10 μg/mouse daily ip from Day 11): 1.3 to 3.1 days | effect on tumor growth of established tumors (MOPC-315 plasmacytoma [9]; IL-18 alone 0.3-10 μg/mouse daily ip from Day 11): only a minimal effect on the tumor growth; also recorded: no effect of IL-18 alone on tumor growth | tumor growth delay ([4]; IL-18 alone 1-100 μg/mouse, no dose-response): less than a week | regressions [4]: no regressions | antitumor activity (MOPC-315 plasmacytoma [12]; IL-18 alone q1D 100 μg/day, ip and sc): active | route comparison (MOPC-315 plasmacytoma [12]; IL-18 alone q1D 100 μg/day, ip versus sc): intraperitoneal was more effective | induction of regression (MOPC-315 plasmacytoma [12]; IL-18 alone, intermittent, 1000 or 100 μg/dose): ineffective in inducing regression | Increase in Lifespan (Lewis lung carcinoma [10]; [18]): 11% | Median Survival Time (Lewis lung carcinoma [10]; [18]): 20 days | Increase in Lifespan (Lewis lung carcinoma [10]; [19]): 0% | Median Survival Time (Lewis lung carcinoma [10]; [19]): 18 days | Increase in Lifespan (Lewis lung carcinoma [10]; [20]): 0% | Median Survival Time (Lewis lung carcinoma [10]; [20]): 18 days | Increase in Lifespan (Lewis lung carcinoma [10]; [21]): 3% | Median Survival Time (Lewis lung carcinoma [10]; [21]): 18.5 days | Increase in Lifespan (Lewis lung carcinoma [10]; [22]): 22% | Median Survival Time (Lewis lung carcinoma [10]; [22]): 22 days | toxicity ([5]; IL-18 1 μg/mouse qD×21 from Day 12): Not Toxic | toxicity ([5]; IL-18 10 μg/mouse qD×21 from Day 12): Not Toxic | toxicity ([5]; IL-18 100 μg/mouse qD×21 from Day 12): Not Toxic | T-C: tumor growth delay ([6]; IL-18 1 μg sc qD×21): T-C 1.7 days, | ILS (increased life span) ([6]; IL-18 10 μg sc qD×21): 12% ILS | T-C: tumor growth delay ([6]; IL-18 10 μg sc qD×21): T-C 2.1 days, | ILS (increased life span) ([6]; IL-18 100 μg sc qD×21): 0% ILS | T-C: tumor growth delay ([6]; IL-18 100 μg sc qD×21): T-C 2.8 days, | tumor growth ([6]; IL-18 alone at the low dose): without delaying tumor growth | regressions [6]: no regressions | metastasis and growth of tumor (colon 26 adenocarcinoma): inhibit the metastasis and growth of colon 26 adenocarcinoma | Increase in Lifespan (Lewis lung carcinoma [11]; [23]): 0% | Median Survival Time (Lewis lung carcinoma [11]; [23]): 22 days | Increase in Lifespan (Lewis lung carcinoma [11]; [24]): 2% | Median Survival Time (Lewis lung carcinoma [11]; [24]): 22.5 days | Increase in Lifespan (Lewis lung carcinoma [11]; [25]): 4% | Median Survival Time (Lewis lung carcinoma [11]; [25]): 23 days | Increase in Lifespan (Lewis lung carcinoma [11]; [26]): 9% | Median Survival Time (Lewis lung carcinoma [11]; [26]): 24 days | effect on survival time (Lewis lung carcinoma [11]; IL-18 alone 0.3-10 μg/mouse ip UID): no effect on survival time; also recorded: did not have an enhanced median survival time | lung tumor nodule count (Lewis lung carcinoma [11]; [27]): significantly decreased | lung tumor weight (Lewis lung carcinoma [11]; [27]): significantly decreased
